Data from the DeepSol protein solubility set.

Experiment: soluble on expression in E. coli; label from the status in PepcDB or PDB records

Sequence	soluble on expression in E. coli
MGHHHHHHSHMHGECVKEEKDFLKKEIVDDTKVKEEPPINHPVGCKRKLAMSRCETCGTEEAKYRCPRCMRYSCSLPCVKKHKAELTCNGVRDKTAYISIQQFTEMNLLSDYRFLEDVARTADHISRDAFLKRPISNKYMYFMKNRARRQGINLKLLPNGFTKRKENSTFFDKKKQQFCWHVKLQFPQSQAEYIEKRVPDDKTINEILKPYIDPEKSDPVIRQRLKAYIRSQTGVQILMKIEYMQQNLVRYYELDPYKSLLDNLRNKVIIEYPTLHVVLKGSNNDMKVLHQVKSESTKNVGNEN	not soluble
MELAYVDAKKEEFDTLDKNHDGKVSLAEYEEHFHEASSKNEKSRTAYFAKVFEDFDEDFNMALSREELERVLAERFLVKPRENFPKLFFKFDVDKSGGLDLTEYMKFDAEFPFDQTDPVGGGPSKSNNHHDQMHTEVPQDADAAAIAAVLAQASPTLNKSPVGVAPPQTSPGLHPVAPGLFQTAVPIKKV	soluble
MTLTQEKRSYMEKLSDENGIISALAFDQRGALKRLMAQYQTQEPTIAQMEELKVLVAEELTPYASSMLLDPEYGLPAAKHLDKNAGLLLAYEKTGYDTTSTKRLPDCLVEWSAKRLKKQGADAVKFLLYYDVDGDEEVNQQKQAYIERIGSECKAEDIPFFLEILAYDETITDAASVEYAKVKPHKVLDAMKVFSDERFGIDVLKVEVPVNMKYVEGFGDGPIVHTQDQAANFFKQQDQATPLPYIYLSAGVSAKLFQDTLVFAKESGANFNGVLCGRATWAGSVKDYIEKGEAAARQWLRTEGFKNIDELNKVLKATATSWKER	soluble
QQMQAESGFVQHVGFKCDNCGIEPIQGVRWHCQDCPPEMSLDFCDSCSDCLHETDIHKEDHQLEPIYRS	soluble
MSLQIKFWPQDLKLAHTWTIASSVTSGSDVTSVGIVQLTDRDGTVGLGEAAPARRYNESTPGSLDFIAKVDATKLSFDNIEASMKYVESLASGQFAAKSAINVALLDGAARKAGKPIYDLLGLGFRNNHHVTSFSIGIDKADVIRKKVLAAEQYPVLKLKVGAADDKANLAALREAAPQKWVRVDANEGWKTKEHALEMIEWLAQDKFIQYIEQPMPADSNPKDIAWLKARSPLPLFGDESYHTAKDVDHCAECYHGVNVKLCKTGGISNAYEALQVARKAGLKTMIGCMIETSILISAAAHLAELCDYLDIDGNLLTTNDPYLGVTAEKGLLSFASAPEKLGLRVRAKEGHHHHHH	soluble
MKVLDLIDKYYPQDNELKHILNVHSRSVADKALWIAGKHPELNLDTVFLEEAAMLHDIGIFLTHAPGIQCFGTEPYICHGYLGAGLVRKEGFPRHALVCERHTGAGLSLKDIMDQKLPVPHREMLPVSMEEQVICFADKFFSKTHLDREKTVEGARKSIAKYGDEGLQRFNNWCKLFL	not soluble
MGSSGMGVDANGKPIKRQPTTNNNNKKAGNNSNNQKKGNNQNNKNNKNQNGGNRNQNRQHHQPPMMQMVPPFGPMGPGGPGGPGFMGPPNGNMNFFNGQNRRNGSGKNNGNRNGAPPSGYNGPSANNVGQGAIGNNMNGAQPFAGPEPSMEVPGFGKNSNIHELFGKMIWRKMEQINDAALVDQLQNRIMNLIHDALASQNDKQQQQQQQQHQQGFNQQRGMPFGGPGNQNGPFGNNAGFQRF	not soluble
MRIQIGELIRSGVLELGDGYRTKRSELSQFGYAIVRAGDVVEIGVTASDSEFVDQRFDKAIGRKTVRLGDVVITTKGTVGRVAEVSKVPNAGLAVYSPQVCYLRSLQPSILHQRYLKYLLMSPATKYSISTFASSSDMAPYLSLSDFKSMVVDLPSLEDQRAIADVLGALDDKIAENQRVIQLSEQLAMTFYRSTEKSESSLTFADVAGIYGGGTPSTKNPDFWDGEIRWATPTDITALKGPWLCGTARSITEEGLSKSSGSLHPEGSILMTSRATVGHVAFIDAPTTTNQGFINLVPQEAYRYWLYFQLKQRTSEFIAWANGATFLELSRGTFKKLPFQACAETELEKFNSVVAPLMKRVLKAQKENQVLAATRDELLPLLMNGKITVAEAKEAAGDVGVVKQNQQEEGDSSV	not soluble
MGSDKIHHHHHHMSVTSTTSQNSLFDVIVIGSGIGGLVTATQLAAKGAKVLVLESYIIPGGSAGYFERQGYRFDVGASMIFGLGNRGTTNLLTRALQAVNSSVEAIADPVQIHYHLPSNLNLKVDRVYDKFLQNLAAYFPHETKGIRRFYDECWQVFKCLNRMDLLSLEEPRYLLRTFLQHPLACLGLLKYLPQNVGDIARRYIRDPELLKFIDIECYCWSVVPAAMTPMINAGMVFSDRHYGGVNYPKGGVGQIAQKLAEGLEKVGGEIRYQAKVAKIITEKYRAVGVQLTNGEIYRSKRIVSNATRWDTFEKLLPVDKMPSNEKDWQHSYKKSPSFLSLHMGVKESVLPQGTECHHIILEDWQNMTQAEGTLFVSIPTLLDPELAPEGCHIIHAFTPHWINDWQGFSVSDYEAKKEETAWRIIDRLEKIFPGLDAGLDYLEVGTPRTHRRFLGREDGTYGPIPRRKLRGLLSMPFNRTAIKGLYCVGDSTFPGQGLNAVAFSGFACAHRIAVDLGL	not soluble
MSLKPNIQFEITGASRILPASGPITNLEILKNFPRTADKSQGFLEKFAEKIGEEFGFHTRYWCHKPWESLDNSRELSSESLAMQAVDKLITHSMSKDVDAFLLGSTTNKRFTGSQAAAVLGNLKLNAPAYDLKTGCSTSLSTLHFAYALMALGYQKILVCCSETLSKVIDPENEKTWIGLADGAASLLLEKSKEGSFTIEKSFFSTDGQYVNAFTTQGVFPPTHEQIDSVGYHLVGDETLMKELAYSRYMQMLDHLLPTEKEKNEITWVIPHQVNRKLIDQVLHENNLNNKIIIWDADTIGNIGGASVLYTLARAVEEKLFDRSGKILLMSVGGGLSYAGQVLNYQEGHHHHHH	soluble
TLTTPPLELSDAIEYILMPLKAVHFPVYEVALMLSIALRFVPTLMDETEKIMNAQRARGVDFGEGNIFQQMRAVVPLLIPLFVSSFNRAEDLATAMEARGYQGGEGRSKYRILKWHQRDTWATGCFAILTVALIFLRA	not soluble
MKKGLKMRALERSDLRFIHELNNNRNIMAYWFEEPYESYDELEELYRKHIHDDAERRFVVEDADGILIGLVELIEINYIHRSAEFQII	not soluble
MLTSKPEIKNSELNSYLVGGAVRDKLLNRPIKDEDYLVVGASIEQMIKLGYHQVGKDFPVFLHPKTKAEYALARTERKQGQGYTGFSCYFAPDVTIEQDLLRRDLTVNAMAMDHNGKIIDPYNGQNDLNDRILRHVSDAFIEDPLRVLRVARFAARYHKYGFTIADETLTLMQEISASGELKCLTPERVWQEMQLSLADGGANSDTNSGNPEVFFEVLQQCNALEELWPELAVLWGIPNPALWHPEICSGIHTMMVLQQAVLLTQAIPDEHSDHRTAVRFAALCHDLGKGVTSDKLWPSHKGHETSGLPLVERICGQLKVPSHYKQLALKVCEFHLHCHKAFELKASTLLKMFNQLDIWRKPEEFDLFLMACKSDFLGRLGFENRAYPQEQYLQAAVKAARKVTAQPFLEKGLQGLAIKEAMAKERLSVIANIKADFAHLNPTPQ	not soluble
MNNHFGKGLMAGLHAPYAYSAHHAVNFCSEYKRGFVLGFTHRMFEKTGDRQLSAWEAGILTRRYGLDKEMVMDFFKENHSGMAVRFFMAGYRLEG	not soluble
MTADSCNPCLTLENTIDVQEVPMTKSVVLADPRGFCAGVDRAILTVQTILKAAEASGKRTREDGLPPVYVRRQIVHNKHVVEDLAGQGAVFVQELAEIPDAAAQAGIPVVFSAHGVSPVVKAEAERRGMHVVDATCPLVGKVHREVLRFVREGYEIVYIGHKGHDEAVGVVGESPEHVHLIEHESDVDSLDFAPDTKLVLLSQTTLSVDETADTIAALKAKFPWIQEPPSSDICYATSNRQAAVKLVAQQSDCVVIVGSANSSNSVRLMEVAQEGLGERGKAYRVDDASELDPAWFEGLESVGISSGASVPDELVSGVIDALQNLGFTGMKSVETIKENMHFVLPAELRRKKLEHHHHHH	soluble
MAGKQITLASLPIGKKARVKSLTLDGTIRRRIMDLGLVSDTIVEALQKSPSGDPTAYHIRGAVIALRSEEASKIMVEVN	not soluble
